Assay results published in patent publication US11130801B2, “Method for inhibiting platelet derived growth factor signaling with C3aR or C5aR antibodies” (CASE WESTERN RESERVE UNIVERSITY, priority 2011, dated 2021).

Columns and labels:
NIH-3T3 fibroblasts = assay: PDGF-AA growth induction of NIH-3T3 fibroblasts (cell counts over time); assay type: cell-based; details: added C5a by itself
Method: PDGF contributes to atherogenesis and plays a central role in neointimal proliferation following EC injury. In view of the growth difference of primary cultured Daf1^−/−, WT, C3aR^−/−C5aR^−/−, and C3^−/−C5^−/−SMCs, we examined whether C3aR/C5aR signals are interconnected with PDGF growth induction. For these studies, we utilized NIH-3T3 fibroblasts (which express PDGFR-αα) in conjunction with PDGF-AA. Following determination of optimal PDGF-AA doses, we incubated 1×10^5 cells/well in triplicate with 30 ng/ml of PDGF-AA±10 ng/ml of C3aR and C5aR antagonists (C3aR-A/C5aR-A), 10 ng/ml of anti-C3a/anti-C5a mAbs or respective controls, after which we quantified cell growth by counting cell numbers over time. […] To directly establish whether C5aR signals augment PDGF-AA growth signaling, we 1) quantified the effect of added C5a one growth, and 2) assayed C5a in culture supernatants of PDGF-AA treated cells. […] Because the dependence of PDGF growth induction on C3aR/C5aR signaling could be indirect, i.e., a consequence of its requirement for viability, we performed cell cycle assays.

C5aR = assay: Proinflammatory gene transcription induced by C5aR signaling; assay type: cell-based; details: added C5a
Description: In view of the connections of MCP-1 and other proinflammatory cytokines with atherosclerosis and the mechanistic linkage of DAF deficiency with potentiated C3aR/C5aR transduction, we tested whether C5aR signaling induces proinflammatory gene transcription. Added C5a induced the mRNA transcription of chemotactic MCP-1/IL-8, proinflammatory IL-1β/IL-6 and growth inductive GM-CSF.

VEGFR2 = VEGFR2 phosphorylation immunoblot in serum starved primary WT aortic ECs; assay type: cell-based, murine; details: added C5a, relative to untreated controls
Method: FIG. 21 illustrates an immunoblot of VEGFR2 phosphorylation. C5a or VEGF-A was added to serum starved primary cultures of WT murine ECs in the absence or presence of C3aR-A/C5aR-A and VEGFR2 phosphorylation assessed by immunoblotting with anti […] mAb.
To directly establish whether C3aR/C5aR signaling is integral to VEGF signaling, we next evaluated phosphorylation of VEGFR2. We tested 1) how adding C5a to primary WT ECs affects VEGFR2 autophosphorylation and 2) whether VEGFR2 phosphorylation induced by added VEGF-A is affected by antagonizing C3aR/C5aR signaling. We incubated serum starved WT aortic ECs with C5a or with VEGF-A in the absence or presence of C3aR-A/C5aR-A, after which we probed immunoblots of protein lysates and anti-pVEGFR2^Y1054/1059 mAb or pan VEGFR2 antibody.

[1] = test system: Raji, Jurkat, U937 cells, primary mΦs, B cells, and DCs; assay: AP and C5 gene transcription in leukocytes by qPCR; assay type: cell-based; details: 10 nM C5a
Description: ECs and leukocytes locally synthesize C3/fB/fD/C5 and the elicited C3a/C5a signal through C3aR/C5aR on the same cells to amplify this synthesis. To determine whether ECs locally synthesize AP complement components, we added IL-1/IFN-γ/TNF-α to HUVEC, 1 hr after which we quantified C3 and fB transcripts by qPCR. […] To test whether leukocytes that are recruited to sites of EC injury locally synthesize AP components and C5a similarly feeds back in them to amplify local complement production, we stimulated Raji, Jurkat, U937 cells, primary mΦs, B cells, and DCs with 10 nM C5a. This documented induction of AP and C5 gene transcription by qPCR.

HUVEC [2] = assay: Cell cycle assay of serum starved HUVEC; assay type: cell-based; details: identical to adding VEGF-A
Method: (§1) Propidium iodide staining was performed as described previously […]. In brief, the cells were serum starved for 24 hrs followed by administration of 1 μM colchicine (Sigma). 16 hrs following colchicine treatment, cells were given either growth factor treatment or 17 ng/mL mC5a. After an additional 24 hrs, cells were removed from plating via Trypsin/EDTA and fixed in 0.25% Formaldehyde for 10 mins at 37° C. Cells were spun out of formaldehyde solution and resuspended in 90% methanol at 4° C. until assayed. Following removal from methanol, excess RNA was removed via treatment with RNase (Sigma) and stained with propidium iodide for 30 mins at 4° C. Cells were analyzed on an Epics XL.
Because the disruptive effect of C3aR/C5aR antagonism on VEGF growth induction could be a consequence of the requirement of autocrine C3aR/C5aR signaling for EC viability, we performed cell cycle assays. […] These findings that autocrine C3aR/C5aR signaling not only prevents EC apoptosis but drives EC growth point to a bidirectional signaling mechanism wherein C3aR/C5aR GPCR signaling transactivates to VEGFR2 signaling and vice versa.

[3] = test system: NIH-3T3 cells, bEND.3 ECs, TC-1 cancer cells; assay: Cell cycle assay (propidium iodide staining) of serum starved cells; assay type: cell-based; details: C5a added to serum starved cells; identical to EGF or VEGF-A
Method: Because this dependence of growth factor responsiveness on C3aR/C5aR signaling could be indirect, i.e., a consequence of its requirement for viability, we performed cell cycle assays.
as §1

NIH-3T3 cells = assay: Cell cycle assay of serum starved NIH-3T3 cells (PDGF study); assay type: cell-based; details: identical to adding PDGF
Method: as §1
PDGF contributes to atherogenesis and plays a central role in neointimal proliferation following EC injury. […] Following determination of optimal PDGF-AA doses, we incubated 1×10^5 cells/well in triplicate with 30 ng/ml of PDGF-AA±10 ng/ml of C3aR and C5aR antagonists (C3aR-A/C5aR-A), 10 ng/ml of anti-C3a/anti-C5a mAbs or respective controls, after which we quantified cell growth by counting cell numbers over time. […] To directly establish whether C5aR signals augment PDGF-AA growth signaling, we 1) quantified the effect of added C5a one growth, and 2) assayed C5a in culture supernatants of PDGF-AA treated cells. […]

HUVEC [4] = assay: Complement mRNA transcripts in HUVEC by qPCR; assay type: cell-based; details: added C3a or C5a
Method: FIG. 33 illustrates charts showing qRT-PCR analysis of C3, factor B and factor D transcripts from HUVEC under hypoxia. A) HUVEC treated with TNF-α, IL-1, and IFN-γ. Blue bars represent samples after treatment. B-C) HUVEC stimulated with C3a (10 ng/ml for 2 hr) or C5a (10 ng/ml for 30 min) Blue bars represent control without C3a/C5a stimulation while red bars represent samples after stimulation. D) HUVEC incubated for 1 hr with FCCP+IAA. Blue bars represent control without hypoxia treatment while yellow bars represent two samples after hypoxia treatment.
We next conversely assessed how transducing C3aR/C5aR signals into ECs affects endogenous EC complement production and whether it is connected with “classical” EC responses. We incubated HUVEC with 1) inflammatory cytokines, 2) the mitochondrial uncoupler protonophore carbonyl cyanide p-(trifluoromethoxy)phenylhydrazone (FCCP)+iodoacetate (IAA) (which mimics hypoxia), or 3) C3a or C5a, after which we assayed complement mRNA transcripts by qPCR. […]
ECs and leukocytes locally synthesize C3/fB/fD/C5 and the elicited C3a/C5a signal through C3aR/C5aR on the same cells to amplify this synthesis. To determine whether ECs locally synthesize AP complement components, we added IL-1/IFN-γ/TNF-α to HUVEC, 1 hr after which we quantified C3 and fB transcripts by qPCR. […]

B1: C5a: complement activation fragment (anaphylatoxin) added to cells (protein, UniProt P01031 678-751, looked up)
C5a anaphylatoxin: TLQKKIEEIAAKYKHSVVKKCCYDGACVNNDETCEQRAARISLGPRCIKAFTECCVVASQLRANISHKDMQLGR
modifications: C5a anaphylatoxin
proliferation of NIH-3T3 cells (NIH-3T3 fibroblasts): induced proliferation | mRNA transcription of MCP-1/IL-8, IL-1β/IL-6 and GM-CSF (C5aR): induced | VEGFR2 Y1054/1059 phosphorylation (VEGFR2): increased | AP and C5 gene transcription [1]: induction | cell cycle transition after adding C5a (HUVEC [2]): transition from G0 into G2 | cell cycle transition after adding C5a [3]: transition from G0 into G2 | cell cycle transition after adding C5a (NIH-3T3 cells): transition from G0 into G2 | production of AP components by ECs (HUVEC [4]): more AP components | transcription of C3 (HUVEC [4]): increased
